Results: patent US20240117334
Numbering of substitutions follows the chain as printed. Numbers in names are those of the source.

B1: MTSP-1 F97E/K224N/F99L/D217I/C122S/C[17]S/C[19]S (protein)
chain: VVGGTDADEGEWPWQVSLHALGQGHICGASLISPNWLVSAAHCYIDDRGFRYSDPTQWTAFLGLHDQSQRSAPGVQERRLKRIISHPFFNDETLDYDIALLELEKPAEYSSMVRPISLPDASHVFPAGKAIWVTGWGHTQYGGTGALILQKGEIRVINQTTCENLLPQQITPRMMCVGFLSGGVDSCQGDSGGPLSSVEADGRIFQAGVVSWGIGCAQRNNPGVYTRLPLFRDWIKENTGV
B2: chymase C22S/K40L/F41K/L99N/F173Y/D175N/S218L/A226R (protein)
chain: IIGGTESKPHSRPYMAYLEIVTSNGPSLKCGGFLIRRNFVLTAAHCAGRSITVTLGAHNITEEEDTWQKLEVIKQFRHPKYNTSTNHHDIMLLKLKEKASLTLAVGTLPFPSQFNFVPPGRMCRVAGWGRTGVLKPGSDTLQEVKLRLMDPQACSHYRNFDHNLQLCVGNPRKTKSAFKGDSGGPLLCAGVAQGIVSYGRLDAKPPRVFTRISHYRPWINQILQAN
B3: chymase C22S/P38Q/K40M/F41R/D175N/V213Q/S218V/A226R/F228A (protein)
chain: B2 chain with P26Q, L28M, K29R, N86L, Y157F, V196Q, L201V, F209A
B4: chymase C22S/P38Q/K40M/F41R/L99M/F173Y/D175N/V213Q/S218V/A226R/F228A (protein)
chain: B2 chain with P26Q, L28M, K29R, N86M, V196Q, L201V, F209A
B5: chymase C22S/P38Q/K40M/F41R/V138I/F173Y/D175R/A190S/V213A/S218V/A226R (protein)
chain: B2 chain with P26Q, L28M, K29R, N86L, V125I, N159R, A177S, V196A, L201V
B6: chymase C22S/P38Q/K40L/F41R/V138I/F173Y/D175N/A190S/V213A/S218V/A226R (protein)
chain: B2 chain with P26Q, K29R, N86L, V125I, A177S, V196A, L201V
B7: chymase C22S/P38Q/K40L/F41R/L99H/V138I/F173Y/D175S/A190S/V213A/S218I/A226R (protein)
chain: B2 chain with P26Q, K29R, N86H, V125I, N159S, A177S, V196A, L201I

Target: Human Factor B
Sequence (chain, as listed by the source): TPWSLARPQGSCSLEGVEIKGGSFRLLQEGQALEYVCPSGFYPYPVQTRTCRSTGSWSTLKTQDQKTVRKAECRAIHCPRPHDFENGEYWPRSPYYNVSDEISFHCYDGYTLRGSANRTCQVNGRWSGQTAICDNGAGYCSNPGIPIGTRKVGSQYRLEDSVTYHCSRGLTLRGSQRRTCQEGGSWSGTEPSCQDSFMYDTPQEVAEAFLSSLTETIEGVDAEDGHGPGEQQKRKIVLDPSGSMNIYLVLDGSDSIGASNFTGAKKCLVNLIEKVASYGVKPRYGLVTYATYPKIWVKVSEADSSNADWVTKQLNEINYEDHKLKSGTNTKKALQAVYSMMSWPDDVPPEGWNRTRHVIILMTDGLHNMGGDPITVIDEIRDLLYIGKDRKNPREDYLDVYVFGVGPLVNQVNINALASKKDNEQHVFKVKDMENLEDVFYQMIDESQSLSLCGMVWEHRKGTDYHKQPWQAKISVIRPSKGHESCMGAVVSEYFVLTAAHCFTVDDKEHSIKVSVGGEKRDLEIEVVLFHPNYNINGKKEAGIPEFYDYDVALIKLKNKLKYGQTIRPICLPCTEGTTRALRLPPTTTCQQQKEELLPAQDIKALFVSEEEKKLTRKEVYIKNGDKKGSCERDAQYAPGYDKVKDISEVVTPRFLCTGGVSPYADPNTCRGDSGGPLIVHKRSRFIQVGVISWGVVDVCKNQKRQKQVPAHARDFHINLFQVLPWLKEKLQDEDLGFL

Protein | Factor B cleavage, Coomassie gel | further results
B1 | – | Factor B add-back hemolysis: is able to inhibit hemolysis
B2 | each lot showed the ability of the engineered proteases to cleave Factor B | –
B3 | each lot showed the ability of the engineered proteases to cleave Factor B | –
B4 | each lot showed the ability of the engineered proteases to cleave Factor B | –
B5 | – | Factor B cleavage: show high Factor B cleavage activity
B6 | – | Factor B cleavage: show high Factor B cleavage activity
B7 | each lot showed the ability of the engineered proteases to cleave Factor B | –
